According to patent publication US20200165325A1:
Like-named read-outs stand apart in the source and are kept apart here.

How the values were obtained:
[1] = target: Env (gp120) of HIV-1 strain AC10.0.29 (HIV-1)
[2] = target: Env (gp120) of HIV-1 strain QH0692.42 (HIV-1)
[3] = target: Env (gp120) of HIV-1 strain SC422661.8 (HIV-1)
[4] = target: Env (gp120) of HIV-1 strain T257-31 (HIV-1)
[5] = target: Env (gp120) of HIV-1 strain TRO.11 (HIV-1)
[6] = target: Env (gp120) of HIV-1 strain ZM214M.PL15 (HIV-1)
[7] = target: Env (gp120) of HIV-1 strain Du156.12 (HIV-1)
[8] = target: Env (gp120) of HIV-1 strain ZM109F.PB4 (HIV-1)
[9] = target: Env (gp120) of HIV-1 strain ZM135M.PL10a (HIV-1)
[10] = target: Env (gp120) of HIV-1 strain ZM197M.PB7 (HIV-1)
[11] = target: Env (gp120) of HIV-1 strain ZM214M.PL15 (HIV-1); remark: listed apart in the source
[12] = target: Env (gp120) of HIV-1 strain ZM249M.PL1 (HIV-1)
[13] = target: Env (gp120) of HIV-1 strain ZM53M.PB12 (HIV-1)
[14] = target: Env (gp120) of HIV-1 strain 0330.v4.c3 (HIV-1)
[15] = target: Env (gp120) of HIV-1 strain 3718.v3.c11 (HIV-1)
[16] = target: Env (gp120) of HIV-1 strain C2101.c01 (HIV-1)
[17] = target: Env (gp120) of HIV-1 strain C3347.c11 (HIV-1)
[18] = target: Env (gp120) of HIV-1 strain Ce2010_F5 (HIV-1)
[19] = target: Env (gp120) of HIV-1 strain PVO.4 (HIV-1)
[20] = target: Env (gp120) of HIV-1 strain WEAU_d15_410_787 (HIV-1)
[21] = target: Env (gp120) of HIV-1 strain 3016.v5.c45 (HIV-1)
[22] = target: Env (gp120) of HIV-1 strain C2101.c01 (HIV-1); remark: listed apart in the source
[23] = target: HIV-1 Env of strain AC10.0.29 (HIV-1)
[24] = target: HIV-1 Env of strain CAP45.2.00.G3 (HIV-1)
[25] = target: HIV-1 Env of strain QH0692.42 (HIV-1)
[26] = target: HIV-1 Env of strain SC422661.8 (HIV-1)
[27] = target: HIV-1 Env of strain T257-31 (HIV-1)
[28] = target: HIV-1 Env of strain TRO.11 (HIV-1)
[29] = target: HIV-1 Env of strain ZM214M.PL15.11 (HIV-1)
[30] = target: Env (gp120) of HIV-1 strain Du172.17 (HIV-1)
[31] = target: Env (gp120) of HIV-1 strain CAP210.2.00.E8 (HIV-1)
[32] = target: Env (gp120) of HIV-1 strain CAP45.2.00.G3 (HIV-1)
[33] = target: Env (gp120) of HIV-1 strain 3718.v3.c11 (HIV-1); remark: listed apart in the source
[34] = target: Env (gp120) of HIV-1 strain T255-34 (HIV-1)
[35] = target: gp160 of HIV-1 strain YU2 with a substitution of 458gp120 (HIV-1)

Row | Substance | neutralization IC50 [14] [µg/mL] | neutralization IC50 [15] [µg/mL] | neutralization IC50 [16] [µg/mL] | neutralization IC50 [17] [µg/mL] | neutralization IC50 [18] [µg/mL] | neutralization IC50 [19] [µg/mL] | neutralization IC50 [20] [µg/mL] | neutralization IC50 [30] [µg/mL] | neutralization IC50 [32] [µg/mL] | other results
1 | NIH45-46 IgG (antibody) | 0.09 | 19.6 | 4.24 | 0.029 | 0.101 | 0.12 | 0.005 | – | – | neutralization IC50 [1]: 0.9 µg/mL; neutralization IC50 [2]: 0.7 µg/mL; neutralization IC50 [3]: 0.05 µg/mL; neutralization IC50 [4]: 0.5 µg/mL; neutralization IC50 [5]: 1.9 µg/mL; neutralization IC50 [6]: 0.3 µg/mL; neutralization IC50 [7]: 0.01 µg/mL; neutralization IC50 [8]: 0.22 µg/mL; neutralization IC50 [9]: 0.36 µg/mL; neutralization IC50 [10]: 0.14 µg/mL; neutralization IC50 [11]: 0.05 µg/mL; neutralization IC50 [12]: 0.02 µg/mL; neutralization IC50 [13]: 0.65 µg/mL; neutralization IC50 [21]: > 30 µg/mL; neutralization IC50 [22]: 12.8 µg/mL
2 | NIH45-46 IgG (wild type) (antibody) | – | – | – | – | – | – | – | – | – | In vitro neutralization IC50 [23]: 0.9 µg/mL; In vitro neutralization IC50 [24]: > 50 µg/mL; In vitro neutralization IC50 [25]: 0.7 µg/mL; In vitro neutralization IC50 [26]: 0.05 µg/mL; In vitro neutralization IC50 [27]: 0.5 µg/mL; In vitro neutralization IC50 [28]: 1.9 µg/mL; In vitro neutralization IC50 [29]: 0.5 µg/mL
3 | NIH45-46^G54F IgG (antibody) | 0.04 | 0.32 | 0.11 | 0.015 | 0.046 | 0.07 | < 0.001 | 16 | – | –
4 | NIH45-46^G54W IgG (antibody) | 0.03 | 0.01 | 0.04 | < 0.001 | 0.038 | 0.05 | < 0.001 | 0.9 | 32.2 | neutralization IC50 [31]: > 50 µg/mL; improvement of neutralization potency over NIH45-46 [33]: 2000 fold; improvement of neutralization potency over NIH45-46 [34]: > 700 fold; neutralization of pseudovirus carrying mutant gp160 [35]: > 1500 fold
5 | NIH45-46^G54Y IgG (antibody) | 0.03 | 0.3 | 0.09 | 0.011 | 0.049 | 0.06 | 0.002 | – | > 50 | –
